From patent publication US20140087995A1 (published 2014)
Where two headings read alike, the source gives them in different places. Numbered stars: 1 amine (or outer) side, 2 acyl side, 3 side chain; on linkers, the order of the positions; unused ones are H or OH. Bridge positions count the residues as written; N and C are the ends. Side chains are listed from the residue outwards. Ends that are not written are not given here. * marks the point of attachment. C20 diacid = O=C(O)CCCCCCCCCCCCCCCCCCC(=O)*; γGlu = O=C(O)[C@H](CCC(=O)[*:2])N[*:1]; AEEA = NCCOCCOCC(=O)O

T1: human calcitonin receptor (human, UniProt P30988 25-474)
T1 sequence (looked up): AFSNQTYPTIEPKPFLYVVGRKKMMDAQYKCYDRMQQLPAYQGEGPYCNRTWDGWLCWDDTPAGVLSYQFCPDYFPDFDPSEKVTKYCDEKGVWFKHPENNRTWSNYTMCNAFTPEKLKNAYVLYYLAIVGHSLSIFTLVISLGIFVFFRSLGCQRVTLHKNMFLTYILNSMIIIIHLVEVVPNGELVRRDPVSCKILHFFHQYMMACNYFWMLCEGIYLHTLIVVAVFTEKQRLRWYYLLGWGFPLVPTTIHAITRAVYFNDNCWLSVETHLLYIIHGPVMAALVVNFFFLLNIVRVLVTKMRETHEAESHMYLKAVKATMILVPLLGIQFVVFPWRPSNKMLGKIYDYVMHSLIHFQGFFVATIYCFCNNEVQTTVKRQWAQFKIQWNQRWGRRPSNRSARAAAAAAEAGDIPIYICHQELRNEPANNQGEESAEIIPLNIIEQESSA

T2: human amylin 3(a) receptor (human calcitonin receptor co-expressed with RAMP-3) (human, UniProt P30988 25-474; O60896 24-148, limits assumed)
T2 sequence (looked up) 1: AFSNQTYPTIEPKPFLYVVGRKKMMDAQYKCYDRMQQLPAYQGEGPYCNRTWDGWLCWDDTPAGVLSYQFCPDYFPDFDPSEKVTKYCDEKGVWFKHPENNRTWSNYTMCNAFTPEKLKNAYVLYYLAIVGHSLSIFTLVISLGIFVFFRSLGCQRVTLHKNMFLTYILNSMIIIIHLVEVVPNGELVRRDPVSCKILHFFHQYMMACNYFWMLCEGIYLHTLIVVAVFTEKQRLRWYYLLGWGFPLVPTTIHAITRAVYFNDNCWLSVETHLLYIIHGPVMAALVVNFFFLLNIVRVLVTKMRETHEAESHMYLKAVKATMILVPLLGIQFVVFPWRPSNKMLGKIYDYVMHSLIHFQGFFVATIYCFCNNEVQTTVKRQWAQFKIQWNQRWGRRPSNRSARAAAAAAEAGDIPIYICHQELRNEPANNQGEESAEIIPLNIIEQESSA
T2 sequence (looked up) 2: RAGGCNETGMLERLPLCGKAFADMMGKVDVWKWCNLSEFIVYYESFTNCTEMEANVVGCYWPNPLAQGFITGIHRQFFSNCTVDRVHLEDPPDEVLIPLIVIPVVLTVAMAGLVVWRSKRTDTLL

T3: human calcitonin receptor (human, UniProt P30988 25-474)
T3 sequence (looked up): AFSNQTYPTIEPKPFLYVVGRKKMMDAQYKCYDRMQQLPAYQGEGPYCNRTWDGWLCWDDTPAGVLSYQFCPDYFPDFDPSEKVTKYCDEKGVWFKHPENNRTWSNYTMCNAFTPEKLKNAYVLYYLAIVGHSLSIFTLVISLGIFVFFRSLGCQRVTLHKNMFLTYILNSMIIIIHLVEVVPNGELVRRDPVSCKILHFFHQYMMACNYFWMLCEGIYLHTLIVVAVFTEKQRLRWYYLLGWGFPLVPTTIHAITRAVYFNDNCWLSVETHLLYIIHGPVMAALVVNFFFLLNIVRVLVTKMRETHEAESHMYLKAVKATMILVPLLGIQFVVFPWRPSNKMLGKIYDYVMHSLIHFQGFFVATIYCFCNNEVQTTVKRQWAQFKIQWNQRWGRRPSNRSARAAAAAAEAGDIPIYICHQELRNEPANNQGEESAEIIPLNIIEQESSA


Key:
Experiment in all cases: cell-based or functional assay
[1] = target: T1, human calcitonin receptor
[2] = target: T2, human amylin 3(a) receptor (human …)
[3] = target: T3, human calcitonin receptor; remark: listed apart in the source

Binder	hCTR funct. EC50 [1] [nM]	Ratio hCT/hAmylin funct. [1]	hAmylin-R funct. EC50 [2] [nM]	Ratio hCT/hAmylin funct. [3]	hCTR funct. EC50 [3] [nM]
KCNTATCATQRLANFLRHSSPNFGAIPSSTNVGSNTY (N-terminal alpha-amino acylated with C20 diacid-gGlu-2xOEG; Cys2-Cys7 disulfide; C-terminal amide, analogue of human amylin; also called compound 24)	10	–	–	–	–
KCNTATCATQRLANFLRHSSPNFGAIPSSTNVGRNTY (N-terminal alpha-amino acylated with C20 diacid-gGlu; Cys2-Cys7 disulfide; C-terminal amide, analogue of human amylin; also called compound 39) [N^α1-[(4S)-4-carboxy-4-(19-carboxynonadecanoylamino)butanoyl]-[Arg17,Pro21,Pro27,Arg34]-h-amylin]	2.52	–	–	–	–
K([AEEA-AEEA-γGlu-C20 diacid])CNTATCATQRLANFLRHSSPNFGAIPSSTNVGSETY-NH2 (disulfide 2-7; N-terminus assumed; SMILES CC[C@H](C)[C@H](NC(=O)[C@H](C)NC(=O)CNC(=O)[C@H](Cc1ccccc1)NC(=O)[C@H](CC(N)=O)NC(=O)[C@@H]1CCCN1C(=O)[C@H](CO)NC(=O)[C@H](CO)NC(=O)[C@H](Cc1c[nH]cn1)NC(=O)[C@H](CCCNC(=N)N)NC(=O)[C@H](CC(C)C)NC(=O)[C@H](Cc1ccccc1)NC(=O)[C@H](CC(N)=O)NC(=O)[C@H](C)NC(=O)[C@H](CC(C)C)NC(=O)[C@H](CCCNC(=N)N)NC(=O)[C@H](CCC(N)=O)NC(=O)[C@@H](NC(=O)[C@H](C)NC(=O)[C@@H]1CSSC[C@H](NC(=O)[C@@H](N)CCCCNC(=O)COCCOCCNC(=O)COCCOCCNC(=O)CC[C@H](NC(=O)CCCCCCCCCCCCCCCCCCC(=O)O)C(=O)O)C(=O)N[C@@H](CC(N)=O)C(=O)N[C@@H]([C@@H](C)O)C(=O)N[C@@H](C)C(=O)N[C@@H]([C@@H](C)O)C(=O)N1)[C@@H](C)O)C(=O)N1CCC[C@H]1C(=O)N[C@@H](CO)C(=O)N[C@@H](CO)C(=O)N[C@H](C(=O)N[C@@H](CC(N)=O)C(=O)N[C@H](C(=O)NCC(=O)N[C@@H](CO)C(=O)N[C@@H](CCC(=O)O)C(=O)N[C@H](C(=O)N[C@@H](Cc1ccc(O)cc1)C(N)=O)[C@@H](C)O)C(C)C)[C@@H](C)O, analogue of human amylin; also called compound 25)	10	–	–	–	–
{C20 diacid-γGlu}-KCNTATCATQRLAHFLRHSSPNFGAIPSSTNVGSETY-NH2 (disulfide 2-7; SMILES CC[C@H](C)[C@H](NC(=O)[C@H](C)NC(=O)CNC(=O)[C@H](Cc1ccccc1)NC(=O)[C@H](CC(N)=O)NC(=O)[C@@H]1CCCN1C(=O)[C@H](CO)NC(=O)[C@H](CO)NC(=O)[C@H](Cc1c[nH]cn1)NC(=O)[C@H](CCCNC(=N)N)NC(=O)[C@H](CC(C)C)NC(=O)[C@H](Cc1ccccc1)NC(=O)[C@H](Cc1c[nH]cn1)NC(=O)[C@H](C)NC(=O)[C@H](CC(C)C)NC(=O)[C@H](CCCNC(=N)N)NC(=O)[C@H](CCC(N)=O)NC(=O)[C@@H](NC(=O)[C@H](C)NC(=O)[C@@H]1CSSC[C@H](NC(=O)[C@H](CCCCN)NC(=O)CC[C@H](NC(=O)CCCCCCCCCCCCCCCCCCC(=O)O)C(=O)O)C(=O)N[C@@H](CC(N)=O)C(=O)N[C@@H]([C@@H](C)O)C(=O)N[C@@H](C)C(=O)N[C@@H]([C@@H](C)O)C(=O)N1)[C@@H](C)O)C(=O)N1CCC[C@H]1C(=O)N[C@@H](CO)C(=O)N[C@@H](CO)C(=O)N[C@H](C(=O)N[C@@H](CC(N)=O)C(=O)N[C@H](C(=O)NCC(=O)N[C@@H](CO)C(=O)N[C@@H](CCC(=O)O)C(=O)N[C@H](C(=O)N[C@@H](Cc1ccc(O)cc1)C(N)=O)[C@@H](C)O)C(C)C)[C@@H](C)O, analogue of human amylin; also called compound 30)	1.68	12.6	–	–	–
KCNTATCATQRLAEFLRHSSPNFGAIPSSTNVGSNTY (N-terminal alpha-amino acylated with C20 diacid-gGlu-2xOEG; Cys2-Cys7 disulfide; C-terminal amide, analogue of human amylin; also called compound 19)	5.32	–	–	–	–
KCNTATCATQRLANFLRHSSPNFGAIPSSTNVGHNTY (N-terminal alpha-amino acylated with C20 diacid-gGlu; Cys2-Cys7 disulfide; C-terminal amide, analogue of human amylin; also called compound 40) [N^α1-[(4S)-4-carboxy-4-(19-carboxynonadecanoylamino)butanoyl]-[Arg17,Pro21,Pro27,His34]-h-amylin]	2.68	–	–	–	–
{C20 diacid-γGlu}-GRCNTATCATQRLAAFLRHSSPNFGAIPSSTNVGHNTY-NH2 (disulfide 3-8; SMILES CC[C@H](C)[C@H](NC(=O)[C@H](C)NC(=O)CNC(=O)[C@H](Cc1ccccc1)NC(=O)[C@H](CC(N)=O)NC(=O)[C@@H]1CCCN1C(=O)[C@H](CO)NC(=O)[C@H](CO)NC(=O)[C@H](Cc1c[nH]cn1)NC(=O)[C@H](CCCNC(=N)N)NC(=O)[C@H](CC(C)C)NC(=O)[C@H](Cc1ccccc1)NC(=O)[C@H](C)NC(=O)[C@H](C)NC(=O)[C@H](CC(C)C)NC(=O)[C@H](CCCNC(=N)N)NC(=O)[C@H](CCC(N)=O)NC(=O)[C@@H](NC(=O)[C@H](C)NC(=O)[C@@H]1CSSC[C@H](NC(=O)[C@H](CCCNC(=N)N)NC(=O)CNC(=O)CC[C@H](NC(=O)CCCCCCCCCCCCCCCCCCC(=O)O)C(=O)O)C(=O)N[C@@H](CC(N)=O)C(=O)N[C@@H]([C@@H](C)O)C(=O)N[C@@H](C)C(=O)N[C@@H]([C@@H](C)O)C(=O)N1)[C@@H](C)O)C(=O)N1CCC[C@H]1C(=O)N[C@@H](CO)C(=O)N[C@@H](CO)C(=O)N[C@H](C(=O)N[C@@H](CC(N)=O)C(=O)N[C@H](C(=O)NCC(=O)N[C@@H](Cc1c[nH]cn1)C(=O)N[C@@H](CC(N)=O)C(=O)N[C@H](C(=O)N[C@@H](Cc1ccc(O)cc1)C(N)=O)[C@@H](C)O)C(C)C)[C@@H](C)O)	–	–	0.109	4.9	0.537
{C20 diacid-γGlu}-GRCNTATCATQRLAAFLRHSSPNFGAIPSSTNVGPNTY-NH2 (disulfide 3-8)	–	–	0.07	2.1	0.148
{C20 diacid-γGlu}-GRCNTATCATQRLAHFLRHSSPNFGAIPSSTNVGPNTY-NH2 (disulfide 3-8; SMILES CC[C@H](C)[C@H](NC(=O)[C@H](C)NC(=O)CNC(=O)[C@H](Cc1ccccc1)NC(=O)[C@H](CC(N)=O)NC(=O)[C@@H]1CCCN1C(=O)[C@H](CO)NC(=O)[C@H](CO)NC(=O)[C@H](Cc1c[nH]cn1)NC(=O)[C@H](CCCNC(=N)N)NC(=O)[C@H](CC(C)C)NC(=O)[C@H](Cc1ccccc1)NC(=O)[C@H](Cc1c[nH]cn1)NC(=O)[C@H](C)NC(=O)[C@H](CC(C)C)NC(=O)[C@H](CCCNC(=N)N)NC(=O)[C@H](CCC(N)=O)NC(=O)[C@@H](NC(=O)[C@H](C)NC(=O)[C@@H]1CSSC[C@H](NC(=O)[C@H](CCCNC(=N)N)NC(=O)CNC(=O)CC[C@H](NC(=O)CCCCCCCCCCCCCCCCCCC(=O)O)C(=O)O)C(=O)N[C@@H](CC(N)=O)C(=O)N[C@@H]([C@@H](C)O)C(=O)N[C@@H](C)C(=O)N[C@@H]([C@@H](C)O)C(=O)N1)[C@@H](C)O)C(=O)N1CCC[C@H]1C(=O)N[C@@H](CO)C(=O)N[C@@H](CO)C(=O)N[C@H](C(=O)N[C@@H](CC(N)=O)C(=O)N[C@H](C(=O)NCC(=O)N1CCC[C@H]1C(=O)N[C@@H](CC(N)=O)C(=O)N[C@H](C(=O)N[C@@H](Cc1ccc(O)cc1)C(N)=O)[C@@H](C)O)C(C)C)[C@@H](C)O)	–	–	0.062	2.9	0.179
{C20 diacid-γGlu}-GRCNTATCATQRLAHFLRHSSPNFGAIPSSTNVGSNTY-NH2 (disulfide 3-8; SMILES CC[C@H](C)[C@H](NC(=O)[C@H](C)NC(=O)CNC(=O)[C@H](Cc1ccccc1)NC(=O)[C@H](CC(N)=O)NC(=O)[C@@H]1CCCN1C(=O)[C@H](CO)NC(=O)[C@H](CO)NC(=O)[C@H](Cc1c[nH]cn1)NC(=O)[C@H](CCCNC(=N)N)NC(=O)[C@H](CC(C)C)NC(=O)[C@H](Cc1ccccc1)NC(=O)[C@H](Cc1c[nH]cn1)NC(=O)[C@H](C)NC(=O)[C@H](CC(C)C)NC(=O)[C@H](CCCNC(=N)N)NC(=O)[C@H](CCC(N)=O)NC(=O)[C@@H](NC(=O)[C@H](C)NC(=O)[C@@H]1CSSC[C@H](NC(=O)[C@H](CCCNC(=N)N)NC(=O)CNC(=O)CC[C@H](NC(=O)CCCCCCCCCCCCCCCCCCC(=O)O)C(=O)O)C(=O)N[C@@H](CC(N)=O)C(=O)N[C@@H]([C@@H](C)O)C(=O)N[C@@H](C)C(=O)N[C@@H]([C@@H](C)O)C(=O)N1)[C@@H](C)O)C(=O)N1CCC[C@H]1C(=O)N[C@@H](CO)C(=O)N[C@@H](CO)C(=O)N[C@H](C(=O)N[C@@H](CC(N)=O)C(=O)N[C@H](C(=O)NCC(=O)N[C@@H](CO)C(=O)N[C@@H](CC(N)=O)C(=O)N[C@H](C(=O)N[C@@H](Cc1ccc(O)cc1)C(N)=O)[C@@H](C)O)C(C)C)[C@@H](C)O, also called compound 99)	–	–	0.082	10	0.818
